Reference: publication PMC9931213, “Structural basis for ATG9A recruitment to the ULK1 complex in mitophagy initiation” (Science Advances, 2023)

B1: MBP-FOLDON-ATG9A (692–839) [bacteriophage T4 | human] / TSF-ATG13^HORMA:GST-ATG101 complex, wild type [human] (parent complex)
chain 1: QLQSLVLSEYASTEMSLHALYMHQLHKQQAQAEPERHVWHRRESDESGESAPDEGGEGARAPQSIPRSASYPCAAPRPGAPETTALHGGFQRRYGGITDPGTVPRVPSHFSRLPLGGWAEDGQSASRHPEPVPEEGSEDELPPQVHKV
chain 2: METDLNSQDRKDLDKFIKFFALKTVQVIVQARLGEKICTRSSSSPTGSDWFNLAIKDIPEVTHEAKKALAGQLPAVGRSMCVEISLKTSEGDSMELEIWCLEMNEKCDKEIKVSYTVYNRLSLLLKSLLAITRVTPAYRLSRKQGHEYVILYRIYFGEVQLSGLGEGFQTVRVGTVGTPVGTITLSCAYRINLAFMS
chain 3: MNCRSEVLEVSVEGRQVEEAMLAVLHTVLLHRSTGKFHYKKEGTYSIGTVGTQDVDCDFIDFTYVRVSSEELDRALRKVVGEFKDALRNSGGDGLGQMSLEFYQKKKSRWPFSDECIPWEVWTVKVHVVALATEQERQICREKVGEKLCEKIINIVEVMNRHEYLPKMPTQSEVDNVFDTGLRDVQPYLYKISFQITDALGTSVTTTMRRLIKDTLAL

Variants of: B1
Assay: GST pull-down; n = 3; read off a plot

**Q.** chain 2 K18D was tested. Which ratio to parent did it give?
**A.** Its ratio to parent is ~0.11.

**Q.** With chain 2 Y115D as the variant, how does the ratio to parent read?
**A.** The ratio to parent was ~0.97.

**Q.** chain 2 F16D was tested. Which ratio to parent did it give?
**A.** Its ratio to parent is ~0.1.

**Q.** Which ratio to parent does the source give for chain 3 Y45D here?
**A.** Its ratio to parent is ~0.02.

**Q.** With chain 2 E83L as the variant, how does the ratio to parent read?
**A.** Its ratio to parent is ~0.88.

**Q.** For chain 2 W50D, which ratio to parent is on record?
**A.** Its ratio to parent is ~0.02.

**Q.** How did the ratio to parent turn out when chain 2 F19D was run?
**A.** Its ratio to parent is ~0.02.

**Q.** For chain 2 Y118D, which ratio to parent is on record?
**A.** Its ratio to parent is ~0.03.

**Q.** For chain 3 W110D, chain 3 F112D, which ratio to parent is on record?
**A.** The ratio to parent was ~0.8.

**Q.** chain 2 K15D was tested. Which ratio to parent did it give?
**A.** The ratio to parent was ~0.26.
